Common to all, as to type: biochemical
What all share (conditions): glycoproteins at 10 mg/ml

One assay deals with T1, β4Gal-T3 (Homo sapiens, UniProt O60512).
T1 construct: media from Sf9 cells expressing secreted forms of either β4Gal-T2 or -T3 were used as enzyme sources; secretion signal of vector pAcGP67 (gp67 leader; own knowledge of the vector) (N); made in house; host or cells: Sf9 cells, baculovirus; unpurified culture supernatant
The assay is described as follows: β4Gal-T3 galactosyltransferase activity assay (soluble enzyme, Sf9 media). The protocol: An expression construct designed to encode amino acid residues 31-372 of β4Gal-T2 was prepared by RT-PCR with mRNA from Colo205 cell line, using the primer pair EBER100FOR (5′-[…]; SEQ ID NO: 9) and EBER114 (5′-[…]; SEQ ID NO: 10) with BamH1 restriction sites (FIG. 2). The PCR product were cloned into the BamHI site of pAcGP67 (Pharmingen), and the construct sequenced to verify correct insertion and sequence. The plasmid pAcGP67-β4Gal-T2-sol was co-transfected with Baculo-Goldä DNA (Pharmingen) as described previously (Bennett et al., 1996). Recombinant Baculo-virus were obtained after two successive amplifications in Sf9 cells grown in serum-containing medium, and titres of virus were estimated by titration in 24-well plates with monitoring of enzyme activities. Controls included pAcGP67-β4Gal-T3-sol (Almeida et al., 1997) and pAcGP67-GalNAc-T3-sol (Bennett et al., 1996).
(§1) Standard assays were performed in […] total reaction mixtures containing 25 mM Tris (pH 7.5), 10 mM MnCl2, 0.25% Triton X-100, […] UDP-[^14C]-Gal (2,300 cpm/nmol) (Amersham), and varying concentration of acceptor substrates (Sigma) (see Table I for structures). The soluble constructs were assayed with […] of culture supernatant from infected cells, whereas the full length construct was assayed with 1% Triton X-100 homogenates of washed cells. Bovine milk P1,4Gal-transferase (Sigma) was used as control.
(§2) Reaction products were quantified by Dowex-1 chromatography. Assays with hen egg Ovalbumin (Sigma), asialo-fetuin (Sigma), and asialo-agalacto-fetuin (Sigma, treated with bgalactosidase) were performed with the standard reaction mixture modified to contain […] UDP-Gal, 54 mM NaCl, and 0.5 mg Ovalbumin. The transfer of Gal was evaluated after precipitation by filtration through Whatman GF/C glass fiber filters.

A further assay deals with T2, Bovine milk β4Gal-T (Bos taurus, UniProt P08037).
T2 construct: Purified bovine milk enzyme; purchased Sigma; host or cells: bovine milk
T2 sequence (P08037 79-402 limits assumed): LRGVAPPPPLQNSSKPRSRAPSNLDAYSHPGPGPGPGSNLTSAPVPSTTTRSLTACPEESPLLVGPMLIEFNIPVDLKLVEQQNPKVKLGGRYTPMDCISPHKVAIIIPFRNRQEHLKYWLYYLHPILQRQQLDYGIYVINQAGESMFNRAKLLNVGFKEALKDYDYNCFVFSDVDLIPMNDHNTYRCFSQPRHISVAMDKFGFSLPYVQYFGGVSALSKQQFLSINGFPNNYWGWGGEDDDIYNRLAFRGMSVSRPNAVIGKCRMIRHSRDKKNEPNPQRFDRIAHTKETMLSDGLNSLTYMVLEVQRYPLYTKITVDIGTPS
The assay is described as follows: Bovine milk β4Gal-transferase activity assay (control enzyme). The protocol:
as §1, §2

In another assay the target is T3, β4Gal-T2 (Homo sapiens, UniProt O60909).
T3 construct: An expression construct designed to encode amino acid residues 31-372 of β4Gal-T2 was prepared by RT-PCR; secretion signal of vector pAcGP67 (gp67 leader; own knowledge of the vector) (N); made in house; host or cells: Sf9 (Spodoptera frugiperda) cells, baculovirus; unpurified culture supernatant
T3 sequence (O60909 31-372): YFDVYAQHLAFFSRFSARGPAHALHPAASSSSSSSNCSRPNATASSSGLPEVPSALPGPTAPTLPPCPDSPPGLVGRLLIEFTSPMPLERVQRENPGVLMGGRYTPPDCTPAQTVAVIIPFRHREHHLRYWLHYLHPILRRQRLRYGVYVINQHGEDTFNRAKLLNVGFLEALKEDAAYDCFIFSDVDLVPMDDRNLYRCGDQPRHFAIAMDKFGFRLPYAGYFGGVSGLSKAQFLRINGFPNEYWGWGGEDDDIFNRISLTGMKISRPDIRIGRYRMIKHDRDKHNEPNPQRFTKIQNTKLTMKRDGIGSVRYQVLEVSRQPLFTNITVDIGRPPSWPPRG
The assay is described as follows: β4Gal-T2 galactosyltransferase activity assay (soluble enzyme, media of infected Sf9 cells).
Source text: The PCR product were cloned into the BamHI site of pAcGP67 (Pharmingen), and the construct sequenced to verify correct insertion and sequence. The plasmid pAcGP67-β4Gal-T2-sol was co-transfected with Baculo-Goldä DNA (Pharmingen) as described previously (Bennett et al., 1996). Recombinant Baculo-virus were obtained after two successive amplifications in Sf9 cells grown in serum-containing medium, and titres of virus were estimated by titration in 24-well plates with monitoring of enzyme activities. Controls included pAcGP67-β4Gal-T3-sol (Almeida et al., 1997) and pAcGP67-GalNAc-T3-sol (Bennett et al., 1996).
as §1
Reaction products were quantified by Dowex-1 chromatography. […] The transfer of Gal was evaluated after precipitation by filtration through Whatman GF/C glass fiber filters.

T1 sequence (O60512 32-393 limits assumed): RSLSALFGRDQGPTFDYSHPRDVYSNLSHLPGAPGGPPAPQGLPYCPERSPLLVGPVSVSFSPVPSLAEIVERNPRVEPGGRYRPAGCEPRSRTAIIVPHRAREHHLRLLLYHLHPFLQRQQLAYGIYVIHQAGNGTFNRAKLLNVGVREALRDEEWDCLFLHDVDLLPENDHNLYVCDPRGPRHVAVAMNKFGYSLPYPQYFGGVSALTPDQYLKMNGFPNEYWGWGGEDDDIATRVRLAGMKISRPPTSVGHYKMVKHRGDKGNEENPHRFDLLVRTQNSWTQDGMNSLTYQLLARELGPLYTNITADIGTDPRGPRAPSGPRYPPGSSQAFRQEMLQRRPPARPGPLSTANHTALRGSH

On to “Asialo-Fetuin: glycoprotein acceptor, asialo-fetuin (Sigma)”, for which the “β4Gal-T3 activity with acceptor substrate” value (from here on “β4Gal-T3 activity”) with β4Gal-T3 amounted to 0.0 nmol/min/mL. For the same molecule, the “Bovine milk β4Gal-T activity with acceptor substrate” value (from here on “Bovine milk β4Gal-T activity”) with Bovine milk β4Gal-T stood at 0.1 nmol/min/µg. Further, in the assay with β4Gal-T2, the “β4Gal-T2 activity with acceptor substrate” value (“β4Gal-T2 activity” for short) was 0.2 nmol/min/mL.

As to “Asialo-agalacto-Fetuin: glycoprotein acceptor; asialo-fetuin (Sigma) treated with bgalactosidase”, the “β4Gal-T3 activity” value with β4Gal-T3 turned out to be 0.7 nmol/min/mL. For the same molecule, in the assay with Bovine milk β4Gal-T, the “Bovine milk β4Gal-T activity” value is 0.8 nmol/min/µg. Further, the “β4Gal-T2 activity” value in the assay with β4Gal-T2 was found to be 2.8 nmol/min/mL.

B1: Hen egg albumin: glycoprotein acceptor, hen egg Ovalbumin (Sigma) (protein, UniProt P01012 2-386, looked up)
Ovalbumin: GSIGAASMEFCFDVFKELKVHHANENIFYCPIAIMSALAMVYLGAKDSTRTQINKVVRFDKLPGFGDSIEAQCGTSVNVHSSLRDILNQITKPNDVYSFSLASRLYAEERYPILPEYLQCVKELYRGGLEPINFQTAADQARELINSWVESQTNGIIRNVLQPSSVDSQTAMVLVNAIVFKGLWEKAFKDEDTQAMPFRVTEQESKPVQMMYQIGLFRVASMASEKMKILELPFASGTMSMLVLLPDEVSGLEQLESIINFEKLTEWTSSNVMEERKIKVYLPRMKMEEKYNLTSVLMAMGITDVFSSSANLSGISSAESLKISQAVHAAHAEINEAGREVVGSAEAGVDAASVSEEFRADHPFLFCIKHIATNAVLFFGRCVSP
As to B1, in the assay with β4Gal-T3, the “β4Gal-T3 activity” value was determined as 1.0 nmol/min/mL. In the assay with Bovine milk β4Gal-T, the “Bovine milk β4Gal-T activity” value turned out to be 0.7 nmol/min/µg. Moreover, the “β4Gal-T2 activity” value with β4Gal-T2 was found to be 2.0 nmol/min/mL.

The values are drawn from patent US7374919B2 (GlycoZym ApS, priority 1998, dated 2008).
